Reference: the domain aggregation screens of Martell et al. (2025)

Test: soluble fraction after stress (log2 fold change); higher = more stays soluble; pooled small domains, quantitative proteomics
Details: stress: pH 4
Method in brief: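 Values are on a log2 scale, where higher means more of the domain stayed soluble after pH 4 stress. They are fold changes in the soluble amount of each domain from pooled custom libraries, measured by high-throughput quantitative proteomics. The fold change is taken to reflect aggregation propensity.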

Sequence | soluble fraction (log2)
HMAYQQITIKANVVNVRQGPGLSYDVMSQANKGETMNVISQKNNWYQVRLSGDKIGWVASWLVDNT | ≥ 0.43
HMAYWVVKNNQVSLQINRSNYQITSTARALSNGNLGDEIDVKVLQSGVIKKAVVIGKGQVELLR | 0.163
HMDAHIGTLTPRERETLHHLAIGHSNKVIAKKLNLAESTVKAYVQSILRKLGLSSRVQAAVYAIQHDIR | -0.23
HMDAIDPKTVTSWADLWKPEYKSSLLLTDDAREVFQMALRKLGYSGNTTDPKEIEAAYNELKKLMPNVAAF | -0.474
HMDAIDQDGNHMTFKRWGEQLQEAFQALEAYDTDKAKTILNELIKFPIDSDLNNALKGILSNIDEMMA | -0.68
HMDAINITTYKGQITLTGTKTGTLVGIYNTAGMLVKSMMSKGEKLYFDNLPSGVYIIKVGEEEPRKVQVI | ≥ 0.43
HMDAKIEYTMSDLIENRLINSDDASMRREKLSEILKIGYGNGKKTLHKLNSFGITREEFEEAMKEVNSH | -0.0624
HMDAKIKDYADAYAKMDPQQAASLFNNMTTGSLDLVAKILENIPANKRAAILEKMDVNAAAQVTEKMR | 0.188
HMDAKSRFQEWVQAETGITPTYRIIGDSGPDHAKTFIAQVLLGERVVGEGVGSSKRAAEQAAAQAALAAM | -0.346
HMDAMMQRLERLKELASSADGSKDYLILGPLRRDLAKLMALEDPKLRQGAEELDRKILAILS | -0.437
HMDAPHPSVVQVYFESRDRSWTYYNDRFDLHEGDLVYVEGKLEGVRGRVVEVSYNFRIKLADYKRVIAVA | -0.122
HMDASSAVQFGSLLRDARRRQGLSQAELGGDKYSGSYISHLESGRRVATPEVIEFLSRRLGVSPLEWGVS | -0.026
HMDASSTGFLGKHVQIVGLVSQPHLNGRRGVASRFDSNRRRYLVRLDEIDGHAEVVAFRPDNLVLSNLL | -0.0982
HMDASVTIEQVERMVQANVSDDVIISQLQGRGAAQNLSTDDIINLTQKGISAEVIKAYQSAG | -0.934
HMDAVLMEYDRLLALELTEDPDVYQDLLDKVREQSLGADGRVTDKYREKFDAVATRFDDYEDNYQW | -0.62
HMDAVQAGKRVLIVDDLIATGGTAKAATDLIEKAGGTVVGFSFVMRLDGLDGLDKLDGKPSSSLIAMP | -0.0677
HMDAYMGEAKDEETFAEEYLNDSGLLNEIPESVARYFDIVAYARDLLIGDFSLHDGHVFNMT | -0.377
HMDDAFLNKEMLKQALENLNEREKKLIYLRFYEGLTQKEIADRLSLSQMHVSRLLNESLNKLRRKI | -0.0579
HMDDATDLPYQEFRTQVSDGQVKIAQFNNNTGKITFESISGDKFKTSGPLELSSDDERLFLENIEDFKFFT | -1.1
HMDDATDVPYQEFRTQVTSGQVEIAQFNNNTGKISFQSTSGEKFETSGPLELSSDDERLFLENIEDFKFFT | -1.63
HMDDATIKVNIAAKFLNAGNNLFVDIDTTVLEGRVLLTGLVDTQEVRIDAVRLVWEVEGIREVINEIEIG | -2.1
HMDDATTQLADRLLDLRRKAGYSQEQLADLLGVSRQAISKWEGAQGRPEVDNVVKLAQIYRVSTDFILTGS | -0.656
HMDDAVSHPDAGHIVTVTKVSADGTAEVMYRGASWRAKTADGSPLTAGSARIVRVDGAALVVEP | 0.116
HMDDDDPDQEIAQYYEKLRAMNPDEETKQKLSDEINKLSKMMYSSQEAMVSRNYLDTVFSLPWHQF | -1.37
HMDDEELDALKGIPANEYTQEQIKQISEVFHTLQKNEVKDWLNSLQLRNIELPFELRNEVFSQ | -0.43

Sequence | soluble fraction (log2)
HMDDFPLKRGSKGNRVTLLQNALVKKYGAGILPKYGVDGMFGKEVEAALVHAKIPTTINEANYTKIV | 0.104
HMDDFSETLLQYIKEKGGHISLNDKTDAGVIYETFGVSKKTFKKAVGDLYKKRLIVLEDTGIRL | 0.0848
HMDDHLSFLAARLPDGASFDTDFDALGIDSFGMIALRAEVEERLGEQIADSDWTKVERPSEILAMLERK | -1.76
HMDDLATAYKAMGVDASISDKDLKRAYRKLMSQHHPDKMIAKGVPADMVAMATEKTQEIQAAYDLIERSR | 0.0752
HMDDLIIQIELKQEGLEITGLKVLLKEDSVIDEQVKQTIRRKIERFLVNLYGNPNVYVSKFSMGI | -1.36
HMDDLTTASIKQQLKALIDEENKNKPLSDQKLTDALKAQGIDISRRTVAKYREAMNIPGSSKRKRF | 0.0697
HMDDMVLEIGPGIGTMTQYLAEAAGKVVAVEIDRNLLPILQETLADYDNVKVIHADVLSLDLEKLVQEE | -0.868
HMDDPDALITDSQLKAIHVLLGKLKIDDNLKHAYIADVLQLKDIPETLKTLTKHQGSTIIERLNLLIKDA | -0.0657
HMDDPLSQLTPREREVLELMASGASNQGIADALVITVRAVEKYVSSIFGKLGLPSTGSESRRVLAVLTFLR | -1.32
HMDDPYAGLRQRAYLFLRERDGAVPEEELIEHVFGSSGNPALWRPLLRQVLGADDRLDLRADGYWALRG | -0.839
HMDDSPTARALRTLDLIHNRPGITAAELADRLGVTERAVRRYVLTLRDAGVPVLGTPGRYGGYQVGK | -0.0455
HMDDSVTFSEFVRMVDSGQVESVRITGNEVTGSDSTGNTFRTFVPPQYEGLVNRLVERDVAVTAEE | -0.284
HMDDSVVFSLNAKGIRLTGAGKYGEAIALFDKAIAAKPGLSGLYFNRAEARRLSGDLPGARSDLEQALAI | -0.113
HMDDTRLELTLLGKIHNDEEINKQSHINVNIKNGVILLTGESPRREITERILTLARTFEHTRQIVNQIAT | -0.515
HMDDVIDVYATYDKSAEGVLSNIQLFSNQKKTTPITPESGKIYIDVEGNYQFRWTGTQYATV | -0.09
HMDDYRSLRGQEKAAIFLMSLSQEQAAKIFANLDDEEIKEISQAMSSLGTVGSEIIERLFVEFAEQVSS | -1.08
HMDEARLAVASNLIRLRTDAGMTQAELGEKLNYSDKTISKWERAEAIPDAFVLKQIGELFHVSVDFLLRTH | 0.1
HMDEDTWKLYKRAYKKYYARYMKGNMSEEAFKTWAAQAARDRDAAIEQVKAALDENLKAQVIERLKEELNR | 0.22
HMDEEEKGEVEVPNLIGLTRKEAKKTLEEEGLLIETKESLKTNLDDEYEKIKSQLPKAGIKIKQGSTVYVD | 0.183
HMDEGQEHYVKETDLPFYSEADPASSVIFPLVLNQKLIEKERKDDWIRALEPTTGLVGWVLLKSLSPQQLS | -1.59
HMDEIELLLQDAIQKLPEKQRMVFTLRYYDNLPYEEISKILDMSVSTLKTNYHYAKSKIEQYILDHS | -0.839
HMDEKPPHEALSNREFQVLQLLAQGRSVGQIAQQLTLSANTISTYRARIFDKLGLHNPADLFSYAARHRLT | 0.111
HMDELNFGNFEGTRIFVQRTARKKSIALSIRDGTIVILAPRHIPNQEIQELITTNTDWIRAKLSQHAETKR | -0.264
HMDELVYVPNITGKTVEEARTELQKRDLGLNIAGHQFSDEFGKGRIISQDPAAGSRLKVNRSISVIVSSGQ | 0.00524
HMDENVVLRKVAREAFVIEYVRGIRAIDPGIGGPKLWLMYKREFGDNDTVGRDTFEDILDRNNLKVRI | -0.363

Sequence | soluble fraction (log2)
HMDEPADVAIFDGFRQMSEDELKKLYESLNLAMTFKDFLHIQNYFKNEENREPSVTEIRVLDTYWSDH | -0.321
HMDEPVDRLSPREQEVLALMAEGRSNAAIAHRLSITEKAVAKHINSIFTKLDLPLDEDDHRRVRAVLAWLR | -0.464
HMDESIPVITYKDSVYANPKAFADAHKLPYKSLHNALSKARKEGKVRFMYKQYNFHLDNNGYIVAVS | -0.195
HMDESLLDYALREIKARIQNGTYPPGTKLSTQEISDSLGISRTPVVAAINRLVAQGVAEAIPRRGTIVAR | 0.015
HMDETFTITFDPNGGTLNGSKTKTVSLGDIVYGKLPTASKTGYSFIGWFTEKEGGEQISSATKIIASDLTL | -0.204
HMDETPESIFAKANELYPKYIKYFYTEQEYYSKVEEYINLYEFQKNSTYILGKDLEEFLEEYITNKQ | -1.51
HMDEWDDGDKPKLKITLYADDDYYFASGFSKSSVSLSGSDGTVTSVSRSSSDTLIVYVTLDALD | -0.845
HMDEYILTLDEVKELLKSKDYDDLKNVLKWSNKFQKDTIIQTAISEKVSDANVINIIKEITGQDITSLIV | -1.12
HMDEYTREQFVADMEEGRVREVTIHPNSEVPTGYIRVELANGADMKLYVTDIVEAEELVRSYGFDPPVRDV | -0.56
HMDFDFHALGREIKRKRKDKGWTQEYLAQLLDRTPRSIMYMENRGQHPSLNILFKIATLLEISIDQFFF | 0.158
HMDFDQELFDKIVEATMDEARAAMDTDDKNVREERWNKLIEHWHELFLEDYPEMDKYLEEITYKFQKNPAT | -1.23
HMDFEVGTVKWFNTKKGYGFITRDQGEDIFVHFRNIKGQGRRSLSDGERVSFVVTHGDKGLQADQVSP | -1.18
HMDFFTAAPEEDEIGKRIDVYIAEYKEELSRSRVQKLIENGLVTVNGKAVKSNYKLRKGDILEVEIPDPE | -0.00543
HMDFGPDSAAPLADGSAPEGFDVKGNADSMLYHEPDGRWYDATVAEVWFRTAEAAQAAGFTKAGS | -2.02
HMDFNNQLKRIRESNGLTQEQLAKILNVSRQSISSWEVGRNFPDLEMIVIISKEFNISLDQLIMG | -1.03
HMDFQTDVFISRFAELKKESGETNKDLQDVFELSLSALINYQTGKRIPDIAFLHKLAQHFGVSADYLLGLS | -0.6
HMDFRQALNTSADSDANKVALLESIVKGKYVSSTVNLLRRVITLRRGRSIDATLAAYSHYVSIR | 0.385
HMDFSVTIKGTSFPVMVSLKKMKQVRLKVFPSGEIKLSAPVGTPEKWIVEYLNDKMSWIEEKMDLFVQ | -0.395
HMDFTMSEIQTAMAALPRGYRTVVQLYLVDGYSHKEIAEMLGVDVNTSKSQLSRGRKQLQAFLAAMS | -0.602
HMDFYIVLGVDRAASVSDVKRAYRRLARKYHPDINPGDREAEAFFLRVTEAYETLIDPDRRQDYDVNG | -1.31
HMDFYPARVKWFNKSKGFGFANIFKSNDDIFLHIETLKRSGLSDLETGEAIVLTVTEGPRGKMADTILTWD | -0.411
HMDGDFGMNLDWQPSEHFPTLARQAGIPADHITAEAIAEFRSYWIGQGKAMTQYQWDHKLLTNLKATKTR | 0.106
HMDGEAQTYVEYGKWFPADLPLEAVRQLADGVPVTKELVAALNPRRSEWEEIKAGLDKIGYPNELL | -0.567
HMDGEITLYKVVGYIKASDFDDKKNGFVIADDYITKRQAEDTMYEWKRKKTYPYLEIKEYKGKDPYK | -0.0464
HMDGLAEQLFNILREELESGDYKPGQKLMSESALAQKYGVSRLTVRAAIARLSALDYVETRNGEGSFVKKR | -0.0881
